Experimental data published in article doi:10.1101/2024.10.27.620470 (bioRxiv, 2024).
“And” between values parts separate entries of the source, which are not always exact repeats. Equal values may be shown once.

How the values were obtained:
[1] = biological target: NTD-N_(41-174) protein double mutant (WV133134AA) (SARS-CoV-2) (UniProt P0DTC9); experiment: ITC
[2] = biological target: N-terminal domain of SARS-CoV-2 nucleocapsid protein (NTD-N_(41-174)) (SARS-CoV-2) (UniProt P0DTC9); experiment: ITC
[3] = biological target: NTF2-like domain of Ras GTPase-activating protein SH3-domain-binding protein 1 (G3BP1_(NTF-2)) (human, UniProt Q13283 1-139); experiment: ITC
[4] = biological target: GFP-tagged G3BP1_(NTF-2) (G3BP1_(NTF-2)-GFP) (human, UniProt Q13283 1-139); experiment: fluorescence intensity-based PPIs plate assay

## NTF2-like domain of Ras GTPase-activating protein SH3-domain-binding protein 1 (G3BP1_(NTF-2)) (from UniProt Q13283 1-139) (domain or fragment)
[1]
  fold higher KD than the single mutants (V134A and W133A): 2 fold and 4 fold
[2]
  Kd: 5.5 µM

B1: N_(128-138) peptide 1 (KDGIIWVATEG) (peptide)
peptide: KDGIIWVATEG
[3]
  Kd: 11.8 µM

B2: mutant N_(128-138) peptide 3 (KAGIIAAATEG) (peptide)
peptide: KAGIIAAATEG
[4]
  binding result: binds

B3: mutant N_(128-138) peptide 2 (KDGIIAAATEG) (peptide)
peptide: KDGIIAAATEG
[4]
  binding result: binds
